Reference: patent US20120058906A1 (published 2012)
Each block holds one binder with its values, some of them ahead of it.

Legend:
[1] = target: T1, rHuman CD44/Fc Chimera, CF (R&D Systems Cat#3660-CD) (human, UniProt P16070 21-220); experiment: MSD ECL multi-spot plate, antigen immobilized; Fab 200 nM; blank spot 588;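 note: blank spot per well as comparator with Hit at signal to blank ratio of 4 or more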
T1 construct: Purchased Fc chimera; not shown: Fc portion of the purchased chimera

[2] = target: T2, rHuman ErbB2/Fc Chimera, CF (R&D Systems Cat#1129-ER) (human, UniProt P04626 23-652); experiment: as above
T2 construct: Purchased Fc chimera; also called HER2/neu; not shown: Fc portion of the purchased chimera

[3] = target: T3, rHuman Notch-1/Fc Chimera, CF (R&D Systems Cat#3647-TK) (human, UniProt P46531 19-526); experiment: as above
T3 construct: Purchased Fc chimera; not shown: Fc portion of the purchased chimera

[4] = target: T4, rHuman IGF-1 sR (IGF-1 sR), CF (R&D Systems Cat#391-GR) (human, UniProt P08069 31-932); experiment: as above
T4 construct: Purchased soluble receptor; also called insulin-like growth factor-1 soluble receptor; IGF-R1

[5] = target: T5, rHuman P-Cadherin/Fc Chimera, CF (R&D Systems Cat#861-PC) (human, UniProt P22223 108-654); experiment: as above
T5 construct: Purchased Fc chimera; not shown: Fc portion of the purchased chimera

[6] = target: T6, rHuman Erythropoietin R/Fc Chimera, CF (R&D Systems Cat#963-ER) (human, UniProt P19235 25-250); experiment: MSD ECL multi-spot plate, antigen immobilized; Fab 8 nM; blank spot 489;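 note: blank spot per well as comparator with Hit at signal to blank ratio of 4 or more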
T6 construct: Purchased Fc chimera; also called EPO R/Fc; Epo R; not shown: Fc portion of the purchased chimera
T6 sequence: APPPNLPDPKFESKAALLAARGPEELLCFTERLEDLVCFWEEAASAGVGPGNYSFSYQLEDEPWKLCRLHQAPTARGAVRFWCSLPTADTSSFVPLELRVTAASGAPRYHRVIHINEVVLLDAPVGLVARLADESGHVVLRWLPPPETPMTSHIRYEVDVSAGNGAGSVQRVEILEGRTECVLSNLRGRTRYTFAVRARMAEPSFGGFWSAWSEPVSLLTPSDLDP

[7] = target: T1, rHuman CD44/Fc Chimera, CF (R&D Systems …); experiment: as above
[8] = target: T7, rHuman EGF R/Fc Chimera, CF (R&D Systems Cat#344-ER) (human, UniProt P00533 25-645); experiment: as above
T7 construct: Purchased Fc chimera; not shown: Fc portion of the purchased chimera

[9] = target: T8, rHuman HGF R/c-MET/Fc Chimera, CF (R&D Systems Cat#358-MT/CF) (human, UniProt P08581 25-932); experiment: as above
T8 construct: Purchased Fc chimera; also called HGF R/Fc; not shown: Fc portion of the purchased chimera

[10] = target: T4, rHuman IGF-1 sR (IGF-1 sR), CF (R&D …); experiment: as above
[11] = target: T9, Recombinant Human DLL4 (R&D Systems Cat#1506-D4/CF) (human, UniProt Q9NR61 27-524); experiment: as above
T9 construct: Purchased recombinant protein; also called delta-like protein 4

[12] = target: T5, rHuman P-Cadherin/Fc Chimera, CF (R&D …); experiment: as above
[13] = target: T6, rHuman Erythropoietin R/Fc Chimera, CF …; experiment: MSD ECL multi-spot plate, antigen immobilized; Fab 200 nM; blank spot 529
[14] = target: T1, rHuman CD44/Fc Chimera, CF (R&D Systems …); experiment: as above
[15] = target: T2, rHuman ErbB2/Fc Chimera, CF (R&D …); experiment: as above
[16] = target: T3, rHuman Notch-1/Fc Chimera, CF (R&D …); experiment: as above
[17] = target: T7, rHuman EGF R/Fc Chimera, CF (R&D …); experiment: as above
[18] = target: T8, rHuman HGF R/c-MET/Fc Chimera, CF (R&D …); experiment: as above
[19] = target: T4, rHuman IGF-1 sR (IGF-1 sR), CF (R&D …); experiment: as above
[20] = target: T9, Recombinant Human DLL4 (R&D Systems …); experiment: as above
[21] = target: T5, rHuman P-Cadherin/Fc Chimera, CF (R&D …); experiment: as above

ECL signal [1]: 1160 ECL signal
ECL signal [2]: 1470 ECL signal
ECL signal [3]: 1250 ECL signal
ECL signal [4]: 1320 ECL signal
ECL signal [5]: 1130 ECL signal
ECL signal [6]: 881 ECL signal
ECL signal [7]: 853 ECL signal
ECL signal [8]: 1030 ECL signal
ECL signal [9]: 1260 ECL signal
ECL signal [10]: 1200 ECL signal
ECL signal [11]: 11400 ECL signal
ECL signal [12]: 788 ECL signal
B1: Fab VH5-51_IGHD5-18*01>3_IGHJ4*01_G100K & V3-4_IGLJ1*01 (Fab, V domains shown)
VH: EVQLVQSGAEVKKPGESLKISCKGSGYSFTSYWIGWVRQMPGKGLEWMGIIYPGDSDTRYSPSFQGQVTISADKSISTAYLQWSSLKASDTAMYYCARRKYSYGYDYFDYWGQGTLVTVSS
VL: QTVVTQEPSFSVSPGGTVTLTCGLSSGSVSTSYYPSWYQQTPGQAPRTLIYSTNTRSSGVPDRFSGSILGNKAALTITGAQADDESDYYCVLYMGSGISYVFGTGTKVTVL
notes: It was expressed as a Fab: CH1 with tags from Plasmid A and lambda CL from Plasmid E; also called Fab No. 22

ECL signal [13]: 1180 ECL signal
ECL signal [14]: 895 ECL signal
ECL signal [15]: 1450 ECL signal
ECL signal [16]: 1330 ECL signal
ECL signal [17]: 1020 ECL signal
ECL signal [18]: 1160 ECL signal
ECL signal [19]: 1110 ECL signal
ECL signal [20]: 29800 ECL signal
ECL signal [21]: 815 ECL signal
B2: Fab VH5-51_IGHD5-18*01>3_IGHJ4*01_G100R & V3-4_IGLJ1*01 (Fab, V domains shown)
VH: EVQLVQSGAEVKKPGESLKISCKGSGYSFTSYWIGWVRQMPGKGLEWMGIIYPGDSDTRYSPSFQGQVTISADKSISTAYLQWSSLKASDTAMYYCARRRYSYGYDYFDYWGQGTLVTVSS
VL: QTVVTQEPSFSVSPGGTVTLTCGLSSGSVSTSYYPSWYQQTPGQAPRTLIYSTNTRSSGVPDRFSGSILGNKAALTITGAQADDESDYYCVLYMGSGISYVFGTGTKVTVL
notes: It was expressed as a Fab: CH1 with tags from Plasmid A and lambda CL from Plasmid E; also called Fab No. 23
